Source: paper PMC4847171, “Structural model of FeoB, the iron transporter from Pseudomonas aeruginosa, predicts a cysteine lined, GTP-gated pore” (Bioscience Reports, 2016)
Values joined by “and” are separate entries in the source; they are usually repeats but may differ in a detail not shown here. Equal entries are not always repeated.

What was measured:
[1] = target: FeoB from Pseudomonas aeruginosa, histidine-tagged (Pseudomonas aeruginosa); test: AFM; AFM imaging in air of isolated FeoB diluted 10000-20000 times in 10 mM K-HEPES pH 7.0, 200 mM NaCl, 10 mM MgSO4, 0.05% C12E8, adsorbed on mica and dried; oligomeric state from molecular volumes
[2] = target: FeoB from Pseudomonas aeruginosa, histidine-tagged (Pseudomonas aeruginosa); test: native gel or EMSA; blue-native PAGE (NativePAGE Novex Bis-Tris 4%-12% gel, Coomassie blue G-250, 140 V for 2 h); purified FeoB solubilised with the polymer NV10
[3] = target: the molecule itself; test: native gel or EMSA; blue-native PAGE, same gel as FeoB; comparison proteins MexB and BSA

Row | Molecule | stoichiometry N [1] | stoichiometry N [2] | stoichiometry N [3]
1 | FeoB from Pseudomonas aeruginosa, histidine-tagged (natural protein) | 3 and 6 | 3 and 6 | 
2 | MexB, drug efflux transporter from Pseudomonas aeruginosa (natural protein) MSKFFIDRPIFAWVIALVIMLAGGLSILSLPVNQYPAIAPPAIAVQVSYPGASAETVQDTVVQVIEQQMNGIDNLRYISSESNSDGSMTITVTFEQGTDPDIAQVQVQNKLQLATPLLPQEVQRQGIRVTKAVKNFLMVVGVVSTDGSMTKEDLSNYIVSNIQDPLSRTKGVGDFQVFGSQYSMRIWLDPAKLNSYQLTPGDVSSAIQAQNVQISSGQLGGLPAVKGQQLNATIIGKTRLQTAEQFENILLKVNPDGSQVRLKDVADVGLGGQDYSINAQFNGSPASGIAIKLATGANALDTAKAIRQTIANLEPFMPQGMKVVYPYDTTPVVSASIHEVVKTLGEAILLVFLVMYLFLQNFRATLIPTIAVPVVLLGTFGVLAAFGFSINTLTMFGMVLAIGLLVDDAIVVVENVERVMAEEGLSPREAARKSMGQIQGALVGIAMVLSAVFLPMAFFGGSTGVIYRQFSITIVSAMALSVIVALILTPALCATMLKPIEKGDHGEHKGGFFGWFNRMFLSTTHGYERGVASILKHRAPYLLIYVVIVAGMIWMFTRIPTAFLPDEDQGVLFAQVQTPPGSSAERTQVVVDSMREYLLEKESSSVSSVFTVTGFNFAGRGQSSGMAFIMLKPWEERPGGENSVFELAKRAQMHFFSFKDAMVFAFAPPSVLELGNATGFDLFLQDQAGVGHEVLLQARNKFLMLAAQNPALQRVRPNGMSDEPQYKLEIDDEKASALGVSLADINSTVSIAWGSSYVNDFIDRGRVKRVYLQGRPDARMNPDDLSKWYVRNDKGEMVPFNAFATGKWEYGSPKLERYNGVPAMEILGEPAPGLSSGDAMAAVEEIVKQLPKGVGYSWTGLSYEERLSGSQAPALYALSLLVVFLCLAALYESWSIPFSVMLVVPLGVIGALLATSMRGLSNDVFFQVGLLTTIGLSAKNAILIVEFAKELHEQGKGIVEAAIEACRMRLRPIVMTSLAFILGVVPLAISTGAGSGSQHAIGTGVIGGMVTATVLAIFWVPLFYVAVSTLFKDEASKQQASVEKGQ |  |  | 2 and 3
